Data from US9540424B2, “Serum albumin binding molecules” (BRISTOL-MYERS SQUIBB COMPANY, priority 2010, dated 2017).
Entries after “also recorded” stand apart in the source; their conditions may differ. Like-named read-outs stand apart in the source and are kept apart here. No end group written: not given here.

Tests used:
[1] = target: T1, human NPY Y4 receptor (Homo sapiens, UniProt P50391); experiment: GTPγS binding functional assay: NPY Y4 receptor membranes; type: biochemical
T1 construct: expressed in transfected cells; host or cells: CHO cells (membrane preparation)
T1 sequence (P50391 whole entry): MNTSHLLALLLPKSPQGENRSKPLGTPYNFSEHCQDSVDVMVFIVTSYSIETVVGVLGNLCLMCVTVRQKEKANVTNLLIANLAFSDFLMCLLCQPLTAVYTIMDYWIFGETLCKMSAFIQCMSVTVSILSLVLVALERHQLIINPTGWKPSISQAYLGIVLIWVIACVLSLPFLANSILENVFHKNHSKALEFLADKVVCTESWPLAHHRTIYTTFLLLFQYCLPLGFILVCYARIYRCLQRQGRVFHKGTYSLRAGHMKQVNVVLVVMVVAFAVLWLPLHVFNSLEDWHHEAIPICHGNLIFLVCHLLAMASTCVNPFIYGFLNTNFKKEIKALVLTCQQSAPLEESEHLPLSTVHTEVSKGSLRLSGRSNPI
From the text: Peptide YY (PYY) and pancreatic polypeptide (PP) are native satiety factors secreted from intestine and pancreas, respectively, in response to food ingestion, and are reduced upon fasting. PYY and PP may both be isolated in their full-length form which are 36-residue peptide amides. PYY can also be further cleaved by the enzyme DPPIV into a shorter biologically active form PYY(3-36). Peripheral injection of PYY(3-36) or PP causes reduction in food intake and body weight in animal models and in humans. Patients with morbid obesity have both reduced basal and meal-stimulated PYY(3-36) and/or PP levels. In contrast, patients with anorexia, or weight loss after bypass surgery, have higher than normal plasma PYY(3-36) and/or PP. Agonism of PYY(3-36) and PP are of great therapeutic value in treating obesity and metabolic diseases. NPY Y2 and Y4 are receptors with the highest affinity to PYY(3-36) and PP, respectively. NPY receptors belong to the G-protein coupled receptor family. Upon agonist stimulation, the NPY receptor may stimulate the down-streamed G-protein, exchanging its bound GDP for a GTP. […]
One T150 flask of recombinant CHO cells over-expressing human NPY Y2 or Y4 receptors were grown in F-12 medium (HAM, with L-glutamine) with G418 at 0.5 mg/ml until confluent. […] Protein concentration was measured and aliquots were stored at −80° C. until use. […]

[2] = test system: HEK parental cells; experiment: cAMP levels in HEK parental cells; type: cell-based, human
[3] = test system: anesthetized rats; experiment: Blood pressure in anesthetized rats after intravenous delivery; type: in vivo, rat; conditions: APLNv4 60 μg/kg, SABA-APLNv2 600 μg/kg
From the text: Potential explanations for the absence of activity with the SABA-APLNv2 construct can include lessened potency due to poorer productive collision frequency, steric hindrance, or peptide-PKE annealing.

[4] = target: T2, Human serum albumin (Homo sapiens, UniProt P02768); experiment: SPR (ProteOn XPR36) binding of SABA-neuropeptide fusions to Human Serum Albumin; conditions: 25° C., average of two experiments
T2 construct: purchased Novozymes Recombumin
Method: Surface Plasmon Resonance (SPR) is a direct binding technique by which molecular interactions can be observed in real time. For these experiments, SPR binding studies were performed using a ProteOn XPR36 instrument (BioRad Laboratories). The running buffer, phosphate buffered saline 0.05% Tween 20 pH 7.4, was purchased from Teknova (cat #P1192) and all experiments were run at 25° C. Human serum albumin was directly immobilized on a BioRad GLC chip via amine coupling as per manufacturer's guidelines using amine coupling reagents purchased from BioRad Laboratories. Human serum albumin was purchased from Novozymes (Recombumin™). About 5000 resonance units (RU) of human serum albumin were immobilized onto 4 separate lanes of the GLC chip surface. For each analyte, five concentrations ranging from 15.6 nM to 250 nM were injected over the surface at 30 μl/min for 240 seconds. The dissociation was monitored for 600 seconds. The surface was regenerated with 100 mM HCl. The resultant data were fitted to a Langumuir 1:1 binding model using the ProteOn Manager Software. The experiment was repeated with a different concentration range. In this second experiment, 5 concentrations ranging from 500 nM to 32 nM were injected over the surfaces, and the data analyzed as above. The KD is the disassociation constant. Smaller numbers indicate tighter binding to serum albumin. Molecules covalently attached to SABA that bind to serum albumin display longer in vivo pharmokinetic half-lives, as described earlier with respect to SABA-FGF-21 fusions.

[5] = target: RhSA (Macaca mulatta, UniProt Q28522); experiment: Biacore kinetics of SABAs on immobilized serum albumin: RhSA; type: binding, rhesus; conditions: Rhesus albumin
Sequence of RhSA (Q28522 17-600): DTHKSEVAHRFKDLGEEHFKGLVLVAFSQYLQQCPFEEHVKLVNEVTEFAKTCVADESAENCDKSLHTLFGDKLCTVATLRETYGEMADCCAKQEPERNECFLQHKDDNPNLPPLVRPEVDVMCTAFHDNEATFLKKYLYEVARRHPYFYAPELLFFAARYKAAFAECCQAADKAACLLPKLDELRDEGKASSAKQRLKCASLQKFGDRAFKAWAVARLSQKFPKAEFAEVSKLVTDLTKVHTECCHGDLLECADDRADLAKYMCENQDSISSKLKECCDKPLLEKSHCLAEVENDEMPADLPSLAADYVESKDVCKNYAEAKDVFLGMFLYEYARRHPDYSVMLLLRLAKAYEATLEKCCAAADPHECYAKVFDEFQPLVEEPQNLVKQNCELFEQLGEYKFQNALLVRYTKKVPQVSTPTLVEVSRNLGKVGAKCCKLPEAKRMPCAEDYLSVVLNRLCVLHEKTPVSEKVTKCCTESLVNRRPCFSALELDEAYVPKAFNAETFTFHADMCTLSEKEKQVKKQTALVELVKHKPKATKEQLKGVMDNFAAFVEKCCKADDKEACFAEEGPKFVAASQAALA
Method: (§1) In addition, binding to albumin was carried out under various pH conditions ranging from pH 5.5 to pH 7.4.

[6] = target: MuSA (Mus musculus, UniProt P07724); experiment: Biacore kinetics of SABAs on immobilized serum albumin: MuSA; type: binding; conditions: HBS-P buffer
Sequence of MuSA (P07724 25-608): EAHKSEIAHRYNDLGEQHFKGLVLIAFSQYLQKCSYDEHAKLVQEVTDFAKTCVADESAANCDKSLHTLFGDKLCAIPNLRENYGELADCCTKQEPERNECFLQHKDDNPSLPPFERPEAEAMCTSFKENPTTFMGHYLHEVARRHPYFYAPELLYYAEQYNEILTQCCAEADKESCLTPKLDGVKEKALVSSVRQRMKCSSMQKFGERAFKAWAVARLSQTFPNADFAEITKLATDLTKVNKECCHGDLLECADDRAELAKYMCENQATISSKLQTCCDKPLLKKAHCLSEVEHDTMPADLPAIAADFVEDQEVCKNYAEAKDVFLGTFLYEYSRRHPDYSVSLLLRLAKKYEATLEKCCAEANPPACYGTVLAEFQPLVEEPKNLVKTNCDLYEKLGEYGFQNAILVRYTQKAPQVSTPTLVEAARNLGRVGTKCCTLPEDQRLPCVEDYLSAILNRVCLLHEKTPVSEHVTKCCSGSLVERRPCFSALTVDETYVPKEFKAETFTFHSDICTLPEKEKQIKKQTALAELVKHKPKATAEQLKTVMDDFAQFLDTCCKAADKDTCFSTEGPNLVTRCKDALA

[7] = target: rat serum albumin (Rattus norvegicus, UniProt P02770); experiment: SABA1.2 binding to rat serum albumin; conditions: up to 1 μM
Sequence of rat serum albumin (P02770 25-608): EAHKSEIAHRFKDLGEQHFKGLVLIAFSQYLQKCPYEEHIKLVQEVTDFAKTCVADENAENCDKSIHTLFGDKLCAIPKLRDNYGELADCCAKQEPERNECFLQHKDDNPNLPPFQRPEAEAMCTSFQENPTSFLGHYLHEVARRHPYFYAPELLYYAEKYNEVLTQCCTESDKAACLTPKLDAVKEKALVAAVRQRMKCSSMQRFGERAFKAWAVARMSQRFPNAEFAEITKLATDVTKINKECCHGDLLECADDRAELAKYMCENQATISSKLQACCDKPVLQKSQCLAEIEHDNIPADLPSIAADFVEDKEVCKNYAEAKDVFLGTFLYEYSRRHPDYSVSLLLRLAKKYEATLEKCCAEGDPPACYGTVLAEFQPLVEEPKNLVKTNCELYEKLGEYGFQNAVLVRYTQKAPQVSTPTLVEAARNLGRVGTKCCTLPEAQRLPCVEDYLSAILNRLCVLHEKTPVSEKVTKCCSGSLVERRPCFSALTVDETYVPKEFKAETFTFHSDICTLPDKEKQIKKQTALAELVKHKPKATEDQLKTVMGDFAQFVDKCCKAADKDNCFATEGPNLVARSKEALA

[8] = NOEL of SABA1.2 in cyno monkeys; type: in vivo; conditions: IV, dosed twice weekly for 5 doses
Method: The NOEL (No observed effective level) in cyno monkeys is 30 mg/kg IV when dosed twice weekly for 5 doses. […] Thus, ample safety factors have been taken into consideration for the dosing levels in this study.”

[9] = target: HSA (Homo sapiens, UniProt P02768)
Method: as §1

[10] = cynomolgus monkey, in vivo
Method: The pharmacokinetics and bioavailability were also evaluated in a three-week, single-dose pre-toxicology study that included both intravenous and subcutaneous administration arms.
Non-compartmental analyses using WinNonlin software were performed to evaluate pharmacokinetic parameters.

[11] = Preliminary formulation screen and stability of SABA1.2

APLEPMYPGDYATPEQMAQYETQLRRYINTLTRPRY-NH2 [PP Control Peptide]
Efficacy [1]: 100 | EC50 ([1]; read-out: Potency (EC50)): 1.7 nM

KCNTATCATQRLANFLVRSSNNLGPVLPPTNVGSNTY [Amylin Control Peptide, reference compound]
effect on cAMP levels in the HEK parental cells [2]: no significant effect

APLNv4: Apelin peptide variant fused in SABA-APLNv2 (QRPRLSHKGPMPF)
effect on blood pressure [3]: robust hypotensive effect

B1: SABA1-AMYv25: SEQ ID NO: 328; SABA1.7-(ED)5G-Cys conjugated to Maleimide-PEG20-Amylin-CONH2 (conjugate)
chain: MGVSDVPRDLEVVAATPTSLLISWHSYYEQNSYYRITYGETGGNSPVQEFTVPYSQTTATISGLKPGVDYTITVYAVYGSKYYYPISINYRTEIEDEDEDEDEDGC
modifications: Maleimide-PEG20-Amylin-CONH2 conjugated via Cys
Koff (1/s) [4]: 2.41 10^−4 1/s | Kon (1/Ms) [4]: 9.34 10^3 1/Ms | effect on cAMP levels in the HEK parental cells [2]: no significant effect

B2: SABA1.2: “core 1” 10Fn3 comprising an (ED)5 extension; SEQ ID NO: 90 (protein)
chain: MGVSDVPRDLEVVAATPTSLLISWHSYYEQNSYYRITYGETGGNSPVQEFTVPYSQTTATISGLKPGVDYTITVYAVYGSKYYYPISINYRTEIEDEDEDEDED
ka ([5]; 25° C., HBS-P buffer): 6600 M⁻¹ s⁻¹ | kd (1/s) ([5]; 25° C., HBS-P buffer): 3.78 ± 0.45E−03 1/s | ka ([5]; 37° C., HBS-P buffer): 18900 M⁻¹ s⁻¹ | kd ([5]; 37° C., HBS-P buffer): 0.0185 s⁻¹ | ka ([5]; pH 5.5, MES buffer): 7570 M⁻¹ s⁻¹ | kd ([5]; pH 5.5, MES buffer): 0.00272 s⁻¹ | ka ([5]; pH 7.4, MES buffer): 6160 M⁻¹ s⁻¹ | kd ([5]; pH 7.4, MES buffer): 0.00295 s⁻¹ | binding to Mouse albumin ([6]; 25° C., up to 1 μM): No measurable interaction; also recorded: no observable binding | binding to Mouse albumin ([6]; 37° C.): no observable binding | interaction with rat serum albumin [7]: No measurable interaction | NOEL (No observed effective level) [8]: 30 mg/kg | kd (1/s) ([9]; Human albumin, 25° C., HBS-P buffer): 4.43 ± 0.65E−04 1/s | kd ([9]; Human albumin, 37° C., HBS-P buffer): 0.000815 s⁻¹ | kd ([9]; Human albumin, pH 5.5, MES buffer): 0.00027 s⁻¹ | kd ([9]; Human albumin, pH 7.4, MES buffer): 0.000388 s⁻¹ | ka ([9]; pH 5.5): 9440 M⁻¹ s⁻¹ | ka ([9]; pH 7.4): 9260 M⁻¹ s⁻¹ | Bioavailability (F) ([10]; 1 mg/kg): 0.7 | AUCall (hr * nmol/L) ([10]; iv, 10 mg/kg): 5,609,457 hr * nmol/L | Vz ([10]; iv, 10 mg/kg): 0.03 L/kg | beta T1/2 ([10]; iv, 10 mg/kg): 143 h | AUCall (hr * nmol/L) ([10]; sc, 1 mg/kg): 251,339 hr * nmol/L | Vz ([10]; sc, 1 mg/kg): 0.062 L/kg | beta T1/2 ([10]; sc, 1 mg/kg): 134 h | protein melting temperature by DSC ([11]; 10 mM succinic acid, 8% sorbitol, 5% glycine, pH 6.0, 1.25 mg/mL protein): 75 °C | level of aggregation after one month ([11]; 4° C.): 1.6% | solubility in the formulation ([11]; 4° C. and ambient temperature, no precipitation or increase in aggregation): at least 20 mg/mL | level of aggregation after one month ([11]; 25° C.): 3.8% | initial aggregate level ([11]; formulation pH 6.0, 5 mg/mL): 1.2%
